Test results: PMC9274624

Target: Malayan pangolin ACE2 extracellular domain (residues 1-740) fused with the Fc domain of mouse IgG (Malayan pangolin)
Assay: SPR

SARS-CoV-2 Delta RBD (residues 319-541) (from UniProt P0DTC2 319-541) (domain or fragment)
Kd: 58.2 nM
